Experimental data as given in article PMC7237784.

Molecular target: T1, AcFur (Acidithiobacillus caldus MTH-04) (UniProt A0A060A2G1)
T1 sequence: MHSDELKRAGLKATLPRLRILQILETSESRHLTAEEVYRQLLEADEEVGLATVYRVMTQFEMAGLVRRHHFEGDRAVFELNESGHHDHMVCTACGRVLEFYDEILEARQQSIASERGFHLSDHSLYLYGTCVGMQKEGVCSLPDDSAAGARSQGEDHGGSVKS
Test: EMSA
Settings: EMSA: 0.4 nM DNA, 0/2/4/8 nM protein, 10 mM Tris-HCl pH 8.0, 100 mM NaCl, 1 mM MnCl2, room temperature, 30 min; 5% native PAGE in 0.5x TBE, EB stain

“GCGTAGGACGTCCTTGATAACTGCAACTAAGTTGCATATATTCCGCACGACCACTCCGCGCGTCCCTGGGGAGCTTGACCGGTAAGTCTATTTATTGAATGATAATGATTAGCATTTATATTATTTGGAGAGATTGTCCATGCGTCGTATACCCCTCTGTGCGCTGCTGAGCACCATGCTTGCTTCCAGC (double strand) [feoP promoter]” was tested, and the binding was “binds”.
For “TTCCACCTGCTCACCTGCGCGGGCCGAGCTCAGGCGGTGGGGGGAAAGGACTTGGGTCATGACGCTCACACTCCCAACGAGTTCGTGGGGACACTATATCATAATGGTAATCATTTGCAATATCAGCCCAAGGGAGGGCCGTCCCGGCGGACGCAGCCGCCGACGCTCAGTCCAGGTCGCCGTGCCTGGGTGTAAAACGC (double strand) [feoABC operator (feoA promoter)]”, the binding was “binds”.
